Results as given in US20020142392A1 (WA PHARM, published 2002).

T1: MC-2 receptor, polypeptide of SEQ ID NO:16 (human, UniProt P33032 1-325)
T1 construct: Tested on COS-7 cells transfected with pE-MC-2; also called MSH receptor subtype; pE-MC-2 transfected COS-7 cells
T1 chain: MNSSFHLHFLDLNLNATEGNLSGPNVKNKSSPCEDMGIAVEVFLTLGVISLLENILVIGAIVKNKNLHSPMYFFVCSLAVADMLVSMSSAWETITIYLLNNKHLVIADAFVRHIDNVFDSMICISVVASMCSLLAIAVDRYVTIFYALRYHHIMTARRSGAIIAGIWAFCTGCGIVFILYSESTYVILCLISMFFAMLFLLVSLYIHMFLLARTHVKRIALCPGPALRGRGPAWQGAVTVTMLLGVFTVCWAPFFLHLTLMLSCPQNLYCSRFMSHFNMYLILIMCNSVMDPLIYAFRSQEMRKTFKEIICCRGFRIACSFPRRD

T2: human melanocyte stimulating hormone receptor (MSH receptor), polypeptide of SEQ ID NO:2 (human, UniProt Q01726 1-317)
T2 construct: also called 11D cDNA product; expressed MSH receptor
T2 sequence: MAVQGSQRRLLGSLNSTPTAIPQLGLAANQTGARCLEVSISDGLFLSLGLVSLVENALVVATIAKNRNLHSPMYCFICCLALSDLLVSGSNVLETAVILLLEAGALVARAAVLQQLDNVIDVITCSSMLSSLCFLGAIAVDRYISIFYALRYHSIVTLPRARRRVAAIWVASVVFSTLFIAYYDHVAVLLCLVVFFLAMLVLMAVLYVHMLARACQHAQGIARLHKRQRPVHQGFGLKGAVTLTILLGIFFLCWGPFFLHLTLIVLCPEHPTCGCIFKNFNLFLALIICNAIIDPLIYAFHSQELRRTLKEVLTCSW


Key:
[1] = target: T1, MC-2 receptor, polypeptide of SEQ ID …; assay: competition with 125I-NDP-MSH on pE-MC-2 transfected COS-7 cells
Experimental: (§1) Eighty percent confluent cultures were transfected with 1 μg of pE-MC-2 plasmid DNA and 40 μg lipofectin (BRL, 8400 Helgerman Court, Gaithersburg, Md. 20877, USA) in serum free medium. Five hours after transfection, serum containing medium was replaced, and cells were cultivated for 20 hours. Cells were then scraped off, centrifuged, resuspended in serum containing medium, plated on 48 well plates, and allowed to grow for 24 hours. […] Radioactivity was counted and data analyzed by iterative, non-linear curve fitting programme suitable for radioligand binding analysis (see FIG. 9). […] The Kᵢ-values were then calculated from the IC-50 values estimated thus estimated by using the Cheng and Prusoff equation, as previously described (Cheng and Prusoff 1973).

[2] = target: T2, human melanocyte stimulating hormone …; assay: competition with 125I-NDP-MSH on pE-11D transfected COS-7 cells; Cheng-Prusoff from IC50
Experimental: as §1, with “20877, USA). Eighty” for “Eighty”, “pE-11D” for “pE-MC-2”, “6).” for “9).”

[3] = target: T1, MC-2 receptor, polypeptide of SEQ ID …; assay: competition with 125I-NDP-MSH on pE-MC-2 transfected COS-7 cells; Cheng-Prusoff from IC50
Experimental: as §1

binding result [1] | Ki [2] [nM] | Ki [3] [nM] | Binder
no binding |  |  | YGGFMTSEKSQTPLVTLFKNAIIKNAYKKGE (peptide, UniProt P01189 237-267, looked up, domain: β-endorphin; Bought from Saxon Biochemicals GmbH; also called non-melanotropic POMC peptide β-endorphin) [β-endorphin]
 | 22.4 |  | MEHFRWG (peptide, UniProt P01189 141-147, looked up, domain: ACTH (4-10); Bought from Saxon Biochemicals GmbH) [ACTH (4-10)]
 | 0.17 | 929 | SYSMEHFRWGKPVGKKRRPVKVYPNGAEDESAEAFPLEF (peptide, UniProt P01189 138-176, looked up, domain: ACTH (1-39); Bought from Saxon Biochemicals GmbH; also called adrenocorticotropic hormone (1-39)) [ACTH (1-39)]
 | 0.449 | 1750 | DEGPYRMEHFRWGSPPKD (peptide, UniProt P01189 217-234, looked up, domain: β-MSH; Bought from Saxon Biochemicals GmbH; also called beta-melanocyte stimulating hormone) [β-MSH]
